Measurements from publication PMC10556615 (Proceedings of the National Academy of Sciences of the …, 2023).

Target: T1, Arabidopsis TIR1 (Transport Inhibitor Response 1), coexpressed with AtASK1 (Arabidopsis, UniProt Q570C0 1-594; Q39255 1-160)
T1 construct: a TEV site stands between the tags and TIR1; ASK1 (AtASK1), Arabidopsis, coexpressed with TIR1; a TEV site stands between the tag and ASK1; that the sample is the TIR1-ASK1 complex is surmised from the coexpression; Cleavage with TEV is not mentioned; also called AtTIR1; His10-eGFP-FLAG-(TEV)-AtTIR1
T1 sequence (looked up) 1: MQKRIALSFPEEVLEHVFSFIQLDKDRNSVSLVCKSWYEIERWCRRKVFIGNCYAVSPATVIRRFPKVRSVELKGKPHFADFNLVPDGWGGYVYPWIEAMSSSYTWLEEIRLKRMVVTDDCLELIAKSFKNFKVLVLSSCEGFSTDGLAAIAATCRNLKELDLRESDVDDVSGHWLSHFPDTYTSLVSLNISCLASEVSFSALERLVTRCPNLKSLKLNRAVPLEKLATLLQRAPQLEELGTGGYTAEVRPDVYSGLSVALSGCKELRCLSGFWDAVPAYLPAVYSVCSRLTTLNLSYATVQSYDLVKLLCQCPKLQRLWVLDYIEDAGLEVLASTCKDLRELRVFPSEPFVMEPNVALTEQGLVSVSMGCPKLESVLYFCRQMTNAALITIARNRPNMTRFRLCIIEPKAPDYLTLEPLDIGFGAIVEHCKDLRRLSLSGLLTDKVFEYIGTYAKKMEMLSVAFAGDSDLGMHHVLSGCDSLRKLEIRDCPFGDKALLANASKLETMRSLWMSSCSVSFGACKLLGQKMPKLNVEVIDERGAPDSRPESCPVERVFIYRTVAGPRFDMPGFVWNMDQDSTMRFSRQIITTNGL
T1 sequence (looked up) 2: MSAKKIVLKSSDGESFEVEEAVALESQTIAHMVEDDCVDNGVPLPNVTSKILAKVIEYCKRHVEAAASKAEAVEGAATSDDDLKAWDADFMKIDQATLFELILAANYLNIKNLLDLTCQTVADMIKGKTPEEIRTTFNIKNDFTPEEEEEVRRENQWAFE
Assay: NMR titration; 1H-15N HSQC of 15N-labeled AXR3 DI/DII with unlabeled TIR1 added, 1:3 ratio, 5 to 10 µM TIR1, 4 °C, 20 mM sodium phosphate pH 6.0, 150 mM NaCl, 3 mM EDTA, 10 mM DTT; loss of HN cross peak intensity; no auxin
Details: both partners purified

binding result: binds
B1: AXR3 DI/DII (N-terminal half of the Aux/IAA protein IAA17/AXR3, residues 1 to 101) (domain or fragment, UniProt P93830 1-101, looked up)
chain: MMGSVELNLRETELCLGLPGGDTVAPVTGNKRGFSETVDLKLNLNNEPANKEGSTTHDVVTFDSKEKSACPKDPAKPPAKAQVVGWPPVRSYRKNVMVSCQ
modifications: 15N isotopically labeled
notes: AXR3 (IAA17), Aux/IAA protein, domains I and II (DI/DII), residues 1 to 101, without the C-terminal PB1 domain; also called AXR3_(1-101); N-terminal half of AXR3; source: E. coli Rosetta DE3, minimal media with 15N ammonium chloride, purified (Co-NTA)
